Source: article PMC12260524, “Identification of a VPS29 isoform with restricted association to Retriever and Retromer accessory proteins through autoinhibition” (Proceedings of the National Academy of Sciences of the …, 2025)

Molecular target: T1, GST-tagged VPS29C (Homo sapiens, UniProt Q9UBQ0)
T1 construct: made in house; host or cells: E. coli BL21 (DE3)
Experiment: Isothermal titration calorimetry (ITC) of peptides with GST-VPS29C
Type: binding
Details: 25 °C, single-site model
Protocol: All the bacterial constructs were expressed in BL21 (DE3) competent cells using the standard autoinduction method as described previously. Cell cultures were harvested by centrifugation at 6,000 × g for 5 min at 4 °C and the cell pellets were then stored at −80 °C until cell lysis. To obtain individual Retromer subunit including VPS26A, GST-VPS29B, and GST-VPS29C, the frozen cell pellet was resuspended in protein buffer (50 mM Tris-HCl pH 7.5, 200 mM NaCl, 2 mM β-mercaptoethanol) supplemented with 50 μg/mL benzamidine, 100 units of DNase I. In all cases, the resuspended cells were lysed through a Constant System TS-series high pressure cell disruptor. The soluble homogenate cleared by centrifugation was loaded onto either Talon resin (Clontech) for His-tagged VPS26A or Glutathione Sepharose (GE Healthcare) for GST-tagged VPS29B/VPS29C. The fusion-tagged containing proteins eluted from the resin were then further purified using size exclusion chromatography (SEC) on a HiLoad® 16/600 Superdex 200 or Superdex 75 column equilibrated with protein buffer. For Retromer, the soluble homogenate was first loaded onto Talon resin (Clontech) followed by glutathione Sepharose (GE healthcare) to obtain the correct stoichiometry ratio of the Retromer complex. Removal of the GST tag from the constructs was performed using an on-column cleavage approach with PreScission protease. The fusion tag free protein was further purified using SEC on a HiLoad® 16/600 Superdex 200 column as described above. Protein integrity was validated using SDS-PAGE gel and concentration was measured using Nanodrop at OD280.
All microcalorimetry experiments were carried out at 25 °C using a PEAQ ITC (Malvern, UK) in protein buffer. […] In the macrocyclic peptide experiment, the equivalent percentage (v/v) of DMSO was added into the target protein to avoid buffer mismatch. All ITC experiments were performed with a single injection of 0.4 μL followed by a series of 12 injections of 3.2 μL each, spaced 180 s apart, and stirred at 750 rpm. To calculate the heat exchange of interactions, the observed peaks were integrated with the subtraction of heat of dilution from the background. The thermodynamic parameters including Kd, ΔH, ΔG, and −TΔS were obtained by fitting and normalizing the data to a single-site binding model using Malvern software package. The stoichiometry was adjusted initially, and if the value was near 1, N was set to exactly 1.0 for computation. To ensure the data were reproducible, each experiment was run at least twice.

[1] = 300 μM peptide into 10 μM GST-VPS29C

Substance	Kd (300 μM peptide titrated into 10 μM GST-VPS29C, protein buffer (50 mM Tris-HCl pH 7.5, 200 mM NaCl, 2 mM β-mercaptoethanol), each experiment run at least twice)	-TΔS [1]	ΔG [1]	ΔH [1]
VPS35L 28-37: natural peptide of the amino-terminal region of VPS35L containing a Pro-Leu motif (EFGDYHPLKP)	No binding detected	–	–	–
VPS35L 16-38: natural peptide of the amino-terminal region of VPS35L containing a Pro-Leu motif (EFASCRLEAVPLEFGDYHPLKPI)	–	4.26 ± 2.04 kcal/mol	-5.26 ± 0.15 kcal/mol	-9.54 ± 2.50 kcal/mol
